According to publication PMC5039417 (2016):

Biological target: HLA-A*0201 molecules on T2 cells (MHC class I/β2-microglobulin complex) (human (endogenous in T2) | )
Assay: FACS; competition with F1-peptide on T2 cells

IC50: 0.419 µg/mL
Binder: SLSYTNPAV [P7:SLSYTNPAV, MUC1 cytoplasmic tail peptide]
